The text below walks through data of PMC11986105 (2025).

Where “and” joins values, the source holds several entries; their conditions need not be identical. Equal values may be shown once. Ends that are not written are not given here.

One may read the koff as the rate constant with which the complex falls apart.

Test [1] has as its target T1, E. coli K-12 BamA β-barrel (residues 421–810), N-terminally biotinylated (E. coli K-12 (strain MG1655), UniProt P0A940 421-810, biotin on the N-terminal Avitag (BirA ligase)). In words: SPR.
Test [2] concerns the target T1, E. coli K-12 BamA β-barrel (residues …). Kind of test: SPR. The source holds these as a separate data set. A general note: In SPR one partner is held on a chip, and binding of the other changes the refractive index at the surface.
Test [3] has the same target. Kind of test: SPR; apparent, BamA pre-equilibrated with 2 uM darobactin.

Consider WNWSKSF (also: post-translationally formed bicyclic ring structures) [darobactin], for which the off-rate constant (koff) in test [1] stood at 0.012 s⁻¹.
As for FLWFYHRPVRGFDCG (also: cyclic peptide, closure not given here) [cyclic peptide CP1], the Kd is 6.6 nM and ~8 nM in test [2]; ~5 nM in test [3]. For the same molecule, the koff in test [1] is 0.0023 s⁻¹.
